Source: US20240287172A1 (SCIRHOM, published 2024)

T1: hiR2-FL-S607R-T7 (human, UniProt Q6PJF5 1-856)
T1 sequence: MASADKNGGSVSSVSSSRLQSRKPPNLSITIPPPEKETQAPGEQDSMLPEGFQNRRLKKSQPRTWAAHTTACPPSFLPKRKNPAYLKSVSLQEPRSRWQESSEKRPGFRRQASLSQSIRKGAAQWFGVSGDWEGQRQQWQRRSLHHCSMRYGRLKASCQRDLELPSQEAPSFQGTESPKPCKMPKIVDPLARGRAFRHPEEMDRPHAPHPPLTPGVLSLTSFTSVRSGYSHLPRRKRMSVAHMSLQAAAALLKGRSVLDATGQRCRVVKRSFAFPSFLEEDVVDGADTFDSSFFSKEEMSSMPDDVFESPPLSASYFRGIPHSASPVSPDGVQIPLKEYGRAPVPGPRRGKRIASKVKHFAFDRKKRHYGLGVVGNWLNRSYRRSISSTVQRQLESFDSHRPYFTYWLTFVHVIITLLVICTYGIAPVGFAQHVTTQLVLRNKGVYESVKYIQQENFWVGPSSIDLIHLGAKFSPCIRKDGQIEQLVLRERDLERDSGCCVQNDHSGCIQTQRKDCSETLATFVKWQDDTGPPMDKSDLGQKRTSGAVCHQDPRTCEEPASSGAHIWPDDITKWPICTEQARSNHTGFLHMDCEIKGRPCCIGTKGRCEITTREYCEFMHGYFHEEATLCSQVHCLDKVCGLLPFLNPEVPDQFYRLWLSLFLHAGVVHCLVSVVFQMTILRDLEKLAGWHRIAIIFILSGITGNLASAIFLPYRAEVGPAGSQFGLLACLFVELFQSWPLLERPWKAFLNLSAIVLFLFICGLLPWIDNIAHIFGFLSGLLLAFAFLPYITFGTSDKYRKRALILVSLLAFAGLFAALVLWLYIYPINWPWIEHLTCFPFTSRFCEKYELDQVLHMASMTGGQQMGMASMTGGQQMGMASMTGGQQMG


Target: T1, hiR2-FL-S607R-T7
Experiment: FACS, MEF-DKO cells, 3 µg/ml
Procedure, shortened: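 MEF-DKO cells expressing T7-tagged full-length hiR2 point mutants were stained on ice for 1 h with purified antibodies at 3 μg/ml in FACS buffer. Detection used PE-conjugated goat anti-mouse IgG F(ab′)2 (1:100, 1 h on ice), read by flow cytometry; buffer-only wells served as controls.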

Binder	loss of binding vs wild type
antibody 48 (antibody, V domains shown, mouse IgG, kappa light chain; also called clone #48; purified antibody 48) VH: QVQLQQSGTELVRPGTSVKVSCKASGYAFTNYLIEWVKQRPGQGLEWIGVINPGSGFTKYNEKFKGKATLTADKSSSTVYMHLSSLTSEDSAVYFCARGLYRAMDYWGQGTSVTVSS VL: DIQMTQSPASQSASLGESVTITCLASQTIATWLAWYQQKPGKSPQLLIYGATTLADGVPSRFSGGGSGTKFSFKISSLQAEDFVSYYCQQLYSTPYTFGGGTKLEIK	≥ 30%
antibody 50 (antibody, V domains shown, mouse IgG, kappa light chain; also called clone #50; purified antibody 50) VH: QVQLQQSGAELVRPGASVKVSCKASGYAFSNYLIEWVKQRPGQGLEWIGVINPGSGFTKYNEKFKGKATLTADKSSSTAYMQLSSLTSEDSAVYFCARGLYRAMDYWGQGTSVTVSS VL: DIQMTQSPASQSASLGESVTITCLASQTIGTWLAWYQQKPGKSPQLLIYAAASLADGVPSRFSGGGSGTKFSFKISSLQAEDFVNYYCQQIYSTPYTFGGGTKLEIK	≥ 30%
